Measurements: patent US20250320312A1 (OXITOPE PHARMA B V, published 2025)
Where a chain is given by its changes, count along the chain named.

Columns and labels:
[1] = target: T1, Peptide 4: Biotin-AGGGGSGGGGSGGGGSAAA-Tyr-acid (N-terminal biotin; C-terminal acid); assay: scFv ELISA
T1 construct: control peptide without PC
T1 peptide: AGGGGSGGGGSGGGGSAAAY
How it was run: (§1)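 Bound scFv was read as OD450 after HRP–anti-V5 detection, TMB development and HCl stop. PPE with BSA was incubated 1 h at RT on BSA-blocked wells coated overnight at 4° C. with peptide, or on streptavidin wells loaded 1 h with biotinylated PC-peptides at 1 μg/mL.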

[2] = target: T2, Peptide 1: Biotin-AGGGGSGGGGSGGGGSAAA-[Tyr(PC)]-acid (N-terminal biotin; C-terminal Tyr(PC), PC = p-diazophenyl phosphoryl choline; C-terminal acid); assay: scFv ELISA
T2 construct: synthetic PC-conjugated peptide; the antibodies are directed at the phosphocholine group
T2 peptide: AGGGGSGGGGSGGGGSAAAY
How it was run: as §1

[3] = target: T3, Peptide 8: Biotin-AEAAAKEAAAKEAAAKEAAAKAAA-Tyr-acid (N-terminal biotin; C-terminal acid); assay: scFv ELISA
T3 construct: control peptide without PC
T3 peptide: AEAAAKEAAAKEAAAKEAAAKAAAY
How it was run: as §1

[4] = target: T4, Peptide 5: Biotin-AEAAAKEAAAKEAAAKEAAAKAAA-[Tyr(PC)]-acid (N-terminal biotin; C-terminal Tyr(PC), PC = p-diazophenyl phosphoryl choline; C-terminal acid); assay: scFv ELISA
T4 construct: synthetic PC-conjugated peptide; the antibodies are directed at the phosphocholine group
T4 peptide: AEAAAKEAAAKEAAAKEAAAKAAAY
How it was run: as §1

BSA [5] = target: BSA (UniProt P02769); assay: scFv ELISA
PC-BSA = assay: ELISA (DELFIA TRF), PC-BSA coated, titrated IgG1
BSA [6] = target: BSA (UniProt P02769); assay: scFv ELISA, periplasmic extract on coated BSA, anti-V5-HRP detection
[7] = target: T5, Peptide 4: Biotin-…-Tyr-acid; assay: scFv ELISA, periplasmic extract on coated peptide, anti-V5-HRP detection
T5 sequence (peptide, N-terminal biotin; C-terminal acid): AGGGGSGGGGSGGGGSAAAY

[8] = target: T6, Peptide 8: Biotin-…-Tyr-acid; assay: as above
T6 sequence (peptide, N-terminal biotin; C-terminal acid): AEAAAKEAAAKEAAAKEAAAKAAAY

[9] = target: T7, Peptide 1: Biotin-AGGGGSGGGGSGGGGSAAA-[Tyr(PC)]-acid (N-terminal biotin; C-terminal Tyr(PC), PC = p-diazophenyl phosphoryl choline; C-terminal acid); assay: scFv ELISA
T7 construct: Synthetic phosphocholine-conjugated peptide
T7 peptide: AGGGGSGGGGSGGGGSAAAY
How it was run: as §1

[10] = target: T8, Peptide 8: Biotin-AEAAAKEAAAKEAAAKEAAAKAAA-Tyr-acid (N-terminal biotin; C-terminal acid); assay: scFv ELISA
T8 construct: Control peptide without PC
T8 peptide: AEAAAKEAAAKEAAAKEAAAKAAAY
How it was run: as §1

[11] = target: T9, Peptide 4: Biotin-AGGGGSGGGGSGGGGSAAA-Tyr-acid (N-terminal biotin; C-terminal acid); assay: scFv ELISA
T9 construct: Control peptide without PC
T9 peptide: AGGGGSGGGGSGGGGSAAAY
How it was run: as §1

[12] = target: Peptide 5: Biotin-…-[Tyr(PC)]-acid; assay: scFv ELISA
[13] = target: T10, Peptide 8: Biotin-AEAAAKEAAAKEAAAKEAAAKAAA-Tyr-acid (N-terminal biotin; C-terminal acid; no PC); assay: scFv ELISA
T10 construct: control peptide without PC
T10 peptide: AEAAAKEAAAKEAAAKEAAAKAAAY
How it was run: as §1

[14] = target: T11, Peptide 5: Biotin-AEAAAKEAAAKEAAAKEAAAKAAA-[Tyr(PC)]-acid (N-terminal biotin; C-terminal Tyr(PC), PC = p-diazophenyl phosphoryl choline; C-terminal acid); assay: scFv ELISA
T11 peptide: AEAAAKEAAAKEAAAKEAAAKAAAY
How it was run: as §1

[15] = target: T12, Peptide 4: Biotin-AGGGGSGGGGSGGGGSAAA-Tyr-acid (N-terminal biotin; C-terminal acid; no PC); assay: scFv ELISA
T12 construct: control peptide without PC
T12 peptide: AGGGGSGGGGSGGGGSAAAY
How it was run: as §1

[16] = target: T13, Peptide 1: Biotin-AGGGGSGGGGSGGGGSAAA-[Tyr(PC)]-acid (N-terminal biotin; C-terminal Tyr(PC), PC = p-diazophenyl phosphoryl choline; C-terminal acid); assay: scFv ELISA
T13 peptide: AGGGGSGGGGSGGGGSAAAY
How it was run: as §1

Chain of PC-BSA (P02769 25-607 limits assumed, form in doubt): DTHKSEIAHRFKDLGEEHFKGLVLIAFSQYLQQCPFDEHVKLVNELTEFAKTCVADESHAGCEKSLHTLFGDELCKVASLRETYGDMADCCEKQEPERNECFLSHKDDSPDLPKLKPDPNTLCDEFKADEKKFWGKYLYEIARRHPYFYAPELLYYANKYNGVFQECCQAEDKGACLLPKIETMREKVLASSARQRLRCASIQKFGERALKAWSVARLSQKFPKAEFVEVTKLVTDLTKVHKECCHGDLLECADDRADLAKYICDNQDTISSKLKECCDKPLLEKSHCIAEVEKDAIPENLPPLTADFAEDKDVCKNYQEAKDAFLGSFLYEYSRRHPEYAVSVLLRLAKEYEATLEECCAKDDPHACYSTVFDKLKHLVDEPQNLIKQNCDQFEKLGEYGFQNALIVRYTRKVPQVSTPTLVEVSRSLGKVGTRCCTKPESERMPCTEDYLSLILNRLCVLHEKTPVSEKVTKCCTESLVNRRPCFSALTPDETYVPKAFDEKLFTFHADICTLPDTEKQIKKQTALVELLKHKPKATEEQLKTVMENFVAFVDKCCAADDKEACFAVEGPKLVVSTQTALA
Chain of BSA (P02769 25-607 limits assumed): as the sequence (P02769 25-607 limits assumed, form in doubt) above

B1: PcOxP_DB02_E06 (scFv, V domains shown)
VH: EVQLLESGGGLVQPGGSLRLSCAASGFTFSDEYMEWVRQAPGKGLEWVAASRGKGNSYTTEYADSVKGRFTISRDNSKNTLYLQMNSLRAEDTAVYYCARDYYGSSYWYFDVWGQGTLVTVSS
VL: DIQMTQSPSSLSASVGDRVTITCTASESLYSSKHKVHYLAWYQQKPGKAPKLLIYGASNRYIGVPSRFSGSGSGTDFTLTISSLQPEDFATYYCAQFYSYPLTFGGGTKVEIK
notes: scFv in periplasmic extract
OD450 [1]: 0.04 OD450
OD450 [2]: 0.06 OD450
OD450 [3]: 0.04 OD450
OD450 [4]: 0.08 OD450
OD450 (BSA [5]): 0.1 OD450

B2: PcOxP_DB01_F04 (human IgG1) (antibody, V domains shown)
VH: B1 VH with D31S, E32Y, G53N, G55Y, S57D
VL: B1 VL with S58V, S99R
EC50 (PC-BSA): 0.344 nM

B3: PcOxP_DB02_B04 (human IgG1) (antibody, V domains shown)
VH: B1 VH with E32Y, G53N, G55W, S57D
VL: DIVMTQSPDSLAVSLGERATINCTASESLYSSKHKVHYLAWYQQKPGQPPKLLIYGASNRYIGVPDRFSGSGSGTDFTLTISSLQAEDVAVYYCAQFYSYPLTFGGGTKVEIK
EC50 (PC-BSA): 0.278 nM

B4: PcOxP_DB01_B06 (human IgG1) (antibody, V domains shown)
VH: B1 VH with D31S, E32Y, G53N, G55Y, S57D, Y107T
VL: B3 VL
EC50 (PC-BSA): 0.219 nM

B5: PcOxP_DB02_G04 (human IgG1) (antibody, V domains shown)
VH: B1 VH with E32Y, G53W, G55A, S57D
VL: B3 VL with T24K, E27Q, L29V, Y30L, S31Y, H34N, V36K, Y61Q, S99V
EC50 (PC-BSA): 0.231 nM

B6: PcOxP_DB02_F10 (human IgG1) (antibody, V domains shown)
VH: B1 VH with E32Q, G53N, G55A, S57D
VL: B3 VL with A25S, E27Q, L29V, Y30L, K35N, V36K, H37N, I62W
EC50 (PC-BSA): 0.659 nM

B7: PcOxP_DB03_G07 (human IgG1) (antibody, V domains shown)
VH: B1 VH with E32H, G53N, G55A, S57D, S105Q
VL: B1 VL
EC50 (PC-BSA): 0.636 nM

B8: PcOxP_DB04_G11 (scFv) (scFv, V domains shown)
VH: B1 VH with E32H, G53W, G55A, S57D
VL: B3 VL with R60T
OD450 (BSA [6]): 0.07 OD450

B9: PcOxP_DB04_A04 (human IgG1) (antibody, V domains shown)
VH: B1 VH with E32F, G53N, G55W, S57D
VL: B3 VL with E27Q, L29V, H34N, V36K, S99R
EC50 (PC-BSA): 0.294 nM

B10: PcOxP_DB04_H01 (scFv) (scFv, part only; not given: linker, domain order, V5 tag, V domains shown, not shown: another chain or arm of the molecule; small tags and cut ends)
VH: B1 VH with E32Y, G53N, G55Y, S57D
VL: B3 VL with I62S, S99N
OD450 [7]: 0.06 OD450
OD450 [8]: 0.07 OD450
OD450 (BSA [6]): 0.07 OD450

B11: PcOxP_DB01_F06 (human IgG1) (antibody, V domains shown)
VH: B1 VH with F27D, E32F, G53N, G55A, S57D
VL: B3 VL with T24K, A25S, E27Q, S31Y, K33S, H34N, V36K, H37N, I62G, S99R
EC50 (PC-BSA): 0.216 nM

B12: PcOxP_DB03_G12 (human IgG1) (antibody, V domains shown)
VH: B1 VH with E32Y, G53N, G55Y, S57D
VL: B3 VL with T24K, A25S, L29V, V36K
EC50 (PC-BSA): 0.557 nM

B13: PcOxP_DB01_F11 (human IgG1) (antibody, V domains shown)
VH: B1 VH with D31S, E32Y, G53N, G55A, S57D, F110Y
VL: B3 VL
EC50 (PC-BSA): 0.244 nM

B14: PcOxP_DB02_C09 (human IgG1) (antibody, V domains shown)
VH: B1 VH with E32A, G53N, G55A, S57D
VL: B1 VL with S58G, S99F
EC50 (PC-BSA): 0.394 nM

B15: PcOxP_DB01_H08 (human IgG1) (antibody, V domains shown)
VH: B1 VH with F29H, E32F, G53N, G55A, S57D
VL: DIQMTQSPSSLSASVGDRVTITCRASESISSSKHKHYLAWYQQKPGKAPKLLIYGASNRYIGVPSRFSGSGSGTDFTLTISSLQPEDFATYYCAQFYVYPLTFGGGTKVEIK
EC50 (PC-BSA): 0.244 nM

B16: PcOxP_DB04_A09 (human IgG1) (antibody, V domains shown)
VH: B1 VH with E32Y, G53N, G55W, S57D
VL: B1 VL with S26E, R60L, I62S
EC50 (PC-BSA): 0.269 nM

B17: PcOxP_DB04_G01 (human IgG1) (antibody, V domains shown)
VH: B1 VH with E32Y, G53N, G55W, S57D, G104L
VL: B3 VL with T24K, E27Q, L29V, Y30L, H34N, K35N, H37N, S99Q
EC50 (PC-BSA): 0.257 nM

B18: PcOxP_DB03_E01 (human IgG1) (antibody, V domains shown)
VH: B1 VH with E32Y, G53N, G55A, S57D, T60V
VL: B1 VL with A57T, S99E
EC50 (PC-BSA): 0.857 nM

B19: PcOxP_DB03_G03 (human IgG1) (antibody, V domains shown)
VH: B1 VH with F29S, E32F, G53N, G55A, S57D
VL: B1 VL with E27Q, L29I, Y30S, R60H
EC50 (PC-BSA): 0.216 nM

B20: PcOxP_DB02_A05 (human IgG1) (antibody, V domains shown)
VH: B1 VH with F29G, E32F, G53N, G55W, S57D
VL: B3 VL with S58G
EC50 (PC-BSA): 0.264 nM

B21: PcOxP_DB03_G11 (human IgG1) (antibody, V domains shown)
VH: B1 VH with D31S, E32Y, G53N, G55A, S57D
VL: B3 VL with T24K, A25S, E27Q, L29V, Y30L, V36K, H37N
EC50 (PC-BSA): 0.244 nM

B22: PcOxP_DB03_H03 (human IgG1) (antibody, V domains shown)
VH: B1 VH with F29G, E32F, G53N, G55W, S57D
VL: B15 VL with R24T, I29L, N58S, I61S, V98S
EC50 (PC-BSA): 0.229 nM

B23: PcOxP_DB04_E08 (human IgG1) (antibody, V domains shown)
VH: B1 VH with F29S, E32F, M34L, G53N, G55W, S57D
VL: B3 VL with A57V
EC50 (PC-BSA): 0.251 nM

B24: PcOxP_DB02_H02 (scFv, V domains shown)
VH: B1 VH with F27P, E32F, G53N, G55A, S57D
VL: B3 VL with S99D
notes: scFv in periplasmic extract
OD450 [9]: 0.07 OD450
OD450 [10]: 0.06 OD450
OD450 [11]: 0.04 OD450
OD450 (BSA [5]): 0.06 OD450
OD450 [12]: 0.19 OD450

B25: PcOxP_DB01_H09 (scFv, V domains shown)
VH: B1 VH with E32Y, G53N, G55A, S57T, F110D
VL: B3 VL
notes: scFv in periplasmic extract
OD450 [13]: 0.04 OD450
OD450 [14]: 0.09 OD450
OD450 [15]: 0.09 OD450
OD450 [16]: 0.06 OD450
OD450 (BSA [5]): 0.09 OD450

B26: PcOxP_DB01_H07 (scFv, V domains shown)
VH: B1 VH with E32H, G53N, G55Y, S57D, Y102I
VL: B3 VL with L29V, H34N, V36K
notes: scFv in periplasmic extract
OD450 [13]: 0.05 OD450
OD450 [15]: 0.05 OD450
OD450 [16]: 0.1 OD450
OD450 (BSA [5]): 0.07 OD450
OD450 [12]: 0.92 OD450
